According to patent US20090191584, “Transcriptional repression of sodium-iodide symporter in thyroid carcinoma” (UNIVERSITY OF KENTUCKY RESEARCH FOUNDATION, published 2009):

Biological target: PARP-1 (commercial) (Homo sapiens, UniProt P09874 SEQ:1-1013)
Assay: EMSA; 1.5 ug purified PARP-1, no shift
Conditions: tags: Trevigen; label: 32P
Method: To evaluate whether purified PARP-1 is associated with NRBS, Applicants performed EMSA using commercial PARP-1 and radiolabeled Probe A (FIG. 18, lane 3). […] As PARP-1 was reported to bind to DNA using its N-terminal domain, the N-terminal DNA-binding domain (1-372 aa) from human PARP-1 were stably transfected into KAK-1 cells. Nuclear extract from multiple pooled positive clones from this transfection or a single positive clone from the same transfection experiment were incubated with labeled Probe A and subjected to EMSA (FIG. 18; lanes 6 & 10, respectively). The gel-shift bands produced were not appreciably different from those produced by nuclear extract from KAK-1 cells transfected with the empty vector (pCR3.1; lane 8) or those produced by parental KAK-1 nuclear extract (lane 2). Addition of cold Probe A, in each case, competed similarly against their respective matched lanes (lanes 3, 7, 9, & 11).

Chain of PARP-1 (commercial) (P09874 2-1014): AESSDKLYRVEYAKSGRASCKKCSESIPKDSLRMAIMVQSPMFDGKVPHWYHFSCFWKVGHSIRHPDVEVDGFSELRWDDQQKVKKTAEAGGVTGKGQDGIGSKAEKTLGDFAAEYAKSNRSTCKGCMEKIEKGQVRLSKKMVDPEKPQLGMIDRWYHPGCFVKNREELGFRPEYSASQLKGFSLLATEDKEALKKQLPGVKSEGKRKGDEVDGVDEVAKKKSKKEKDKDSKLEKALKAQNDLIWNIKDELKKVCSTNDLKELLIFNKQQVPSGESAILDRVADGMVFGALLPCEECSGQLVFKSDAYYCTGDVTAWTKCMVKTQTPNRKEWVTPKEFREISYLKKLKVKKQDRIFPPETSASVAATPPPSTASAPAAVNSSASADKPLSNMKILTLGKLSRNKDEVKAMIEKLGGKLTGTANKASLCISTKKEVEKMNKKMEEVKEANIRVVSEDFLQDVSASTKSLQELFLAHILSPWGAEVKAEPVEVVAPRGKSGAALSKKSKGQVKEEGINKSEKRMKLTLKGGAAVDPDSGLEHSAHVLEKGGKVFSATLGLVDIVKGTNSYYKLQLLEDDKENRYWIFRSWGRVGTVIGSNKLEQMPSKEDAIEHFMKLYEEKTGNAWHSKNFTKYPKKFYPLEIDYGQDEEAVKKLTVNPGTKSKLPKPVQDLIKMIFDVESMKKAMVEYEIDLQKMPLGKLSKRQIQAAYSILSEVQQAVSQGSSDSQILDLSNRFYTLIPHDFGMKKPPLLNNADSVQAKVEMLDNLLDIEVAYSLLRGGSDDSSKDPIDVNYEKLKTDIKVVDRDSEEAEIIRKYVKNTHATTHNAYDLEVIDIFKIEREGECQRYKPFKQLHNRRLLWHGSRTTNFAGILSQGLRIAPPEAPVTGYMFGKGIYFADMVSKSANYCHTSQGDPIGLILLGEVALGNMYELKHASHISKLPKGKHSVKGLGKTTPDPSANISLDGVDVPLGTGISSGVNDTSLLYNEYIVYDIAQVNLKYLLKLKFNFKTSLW

B1: Probe A (-684 to -565 hNIS) (dsDNA)
DNA 1: AAGCAGGCTGTGCAGGCTTGGATAGTGACATGCCCTTTTTGAGCCTCAATTTCCCCACCTGTCAACAGCAGACAGTGACAGCTGTGATCAGGGGATCACAGTGCATGGGGATGGGTGTGT
DNA 2: ACACACCCATCCCCATGCACTGTGATCCCCTGATCACAGCTGTCACTGTCTGCTGTTGACAGGTGGGGAAATTGAGGCTCAAAAAGGGCATGTCACTATCCAAGCCTGCACAGCCTGCTT
  binding result: no binding
